Experimental data published in patent US20170114099A1 (Affibody, published 2017).
Where two headings read alike, the source gives them in different places.

Key:
Assay in all cases: cell-based or functional assay
[1] = target: T1, human IL-6 receptor alpha (hIL-6Rα) (human, UniProt P08887 20-358, limits assumed)
T1 sequence (looked up): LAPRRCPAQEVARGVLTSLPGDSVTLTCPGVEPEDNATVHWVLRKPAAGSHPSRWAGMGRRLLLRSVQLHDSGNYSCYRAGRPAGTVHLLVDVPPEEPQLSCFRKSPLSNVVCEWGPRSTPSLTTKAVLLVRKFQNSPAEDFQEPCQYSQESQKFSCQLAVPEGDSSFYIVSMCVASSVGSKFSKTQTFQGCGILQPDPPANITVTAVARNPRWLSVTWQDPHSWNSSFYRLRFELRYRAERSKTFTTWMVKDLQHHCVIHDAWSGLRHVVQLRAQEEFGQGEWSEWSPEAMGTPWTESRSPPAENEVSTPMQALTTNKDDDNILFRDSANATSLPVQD

[2] = target: T2, cell surface IL-6 receptor on TF-1 cells (UniProt P08887 20-468, limits assumed)
T2 sequence (looked up): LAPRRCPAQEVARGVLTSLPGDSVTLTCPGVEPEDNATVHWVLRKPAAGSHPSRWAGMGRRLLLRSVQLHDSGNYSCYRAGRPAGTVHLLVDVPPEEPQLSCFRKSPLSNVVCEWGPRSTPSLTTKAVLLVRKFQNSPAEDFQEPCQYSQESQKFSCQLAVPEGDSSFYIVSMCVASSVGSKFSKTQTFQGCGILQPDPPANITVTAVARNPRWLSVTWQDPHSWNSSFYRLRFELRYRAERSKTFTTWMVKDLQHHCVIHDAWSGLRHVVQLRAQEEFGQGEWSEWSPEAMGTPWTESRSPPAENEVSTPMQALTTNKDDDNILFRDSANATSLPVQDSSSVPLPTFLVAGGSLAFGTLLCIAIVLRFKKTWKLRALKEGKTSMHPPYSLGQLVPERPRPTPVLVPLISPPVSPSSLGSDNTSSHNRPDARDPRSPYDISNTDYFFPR

[3] = target: T2, cell surface IL-6 receptor on TF-1 cells; remark: listed apart in the source

B1: tocilizumab (antibody, V domains shown)
VH: QVQLQESGPGLVRPSQTLSLTCTVSGYSITSDHAWSWVRQPPGRGLEWIGYISYSGITTYNPSLKSRVTMLRDTSKNQFSLRLSSVTAADTAVYYCARSLARTTAMDYWGQGSLVTVSS
VL: DIQMTQSPSSLSASVGDRVTITCRASQDISSYLNWYQQKPGKAPKLLIYYTSRLHSGVPSRFSGSGSGTDFTFTISSLQPEDIATYYCQQGNTLPYTFGQGTKVEIKR
In the case of B1, the “IC50, inhibition of IL-6 trans-signaling dependent MCP-1 secretion by HUVECs” value [1] is reported as ~5 nM, the “IC50 blocking the IL-6 dependent growth of TF-1 cells” value [2] is reported as 0.41 nM and the “IC50 blocking the IL-6 dependent growth of TF-1 cells” value [3] is reported as 0.3 nM.
